Results as given in PMC6888739, “SiMYB3 in Foxtail Millet (Setaria italica) Confers Tolerance to Low-Nitrogen Stress by Regulating Root Growth in Transgenic Plants”.

B1: TAR2 promoter mutant probe (dsDNA)
DNA 1: TTAAGTACATGATTAATTAACGTAATCCAATA
DNA 2: TATTGGATTACGTTAATTAATCATGTACTTAA
B2: OsFIB promoter MYB-motif probe (dsDNA)
DNA 1: GCGATAGAATGTGTCGTATCCCGAGCTAGTTTTGTTCGAACATACAGCC
DNA 2: GGCTGTATGTTCGAACAAAACTAGCTCGGGATACGACACATTCTATCGC
B3: TAR2 promoter MYB-element probe (dsDNA)
DNA 1: TTAAGTACATGAGTTAGGTTCGTAATCCAATA
DNA 2: TATTGGATTACGAACCTAACTCATGTACTTAA

Biological target: T1, SiMYB3 (Setaria italica, UniProt K3YEJ5 1-315)
T1 sequence: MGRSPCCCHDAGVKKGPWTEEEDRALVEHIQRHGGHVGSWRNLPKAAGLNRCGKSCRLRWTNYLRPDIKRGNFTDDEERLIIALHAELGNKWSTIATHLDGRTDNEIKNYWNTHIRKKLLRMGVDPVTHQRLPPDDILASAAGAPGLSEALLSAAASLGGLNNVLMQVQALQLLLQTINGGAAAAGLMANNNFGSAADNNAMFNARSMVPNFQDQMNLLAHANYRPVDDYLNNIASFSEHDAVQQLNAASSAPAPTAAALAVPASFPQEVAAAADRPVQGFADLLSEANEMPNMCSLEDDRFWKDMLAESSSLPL
Assay: EMSA; EMSA 20 uL: 30 ng GST-SiMYB3, 400 fmol biotin probe, 10 mM Tris pH 7.5, 50 mM KCl, 1 mM DTT, 2.5% glycerol, 5 mM MgCl2, 50 ng/uL poly(dI-dC), 0.05% NP-40; temperature not stated
Settings: protein: recombinant; label: biotin

| Binder | binding result |
| --- | --- |
| B1 | no binding |
| B2 | binds |
| B3 | binds |
